Patent US6458943 (INSTITUT NATIONAL DE LA SANTE ET DE LA RECHERCHE MEDICALE, dated 2002)

Experiments:
[1] = biological target: T1, eukaryotic initiation factor 4AII library interactor (pAD-GAL4 construct, DNA Database of Japan accession no. … (human, UniProt P04386 761-881; Q14240 1-407, limits assumed); assay: yeast two-hybrid, retransfection of Hf7c
T1 construct: False positive of the Hf7c screen
Procedure: (§1) Transformants were plated onto solid SD/-His-Trp-Leu (incorporating 35 mM 3-AT in the case of Y190 transformants) and incubated for up to 14 days at 30° C. After 3 initial days of growth, plates were inspected daily, and His+ colonies were transferred to SD/-His-Trp-Leu +0.07 M potassium phosphate pH 7+40 µg/ml X-gal plates which incorporated 35 mM 3-AT in the case of Y190 co-transformants. Colonies which remained His+, and in the case of Y190 co-transformants, were also lacZ+, were re-streaked onto fresh plates to check that all colonies were of uniform phenotype. After 6 days incubation at 30° C., yeast colonies were directly harvested, and plasmid DNA was isolated and used to transfect XL1 Blue. Mini-preparations of plasmid DNA were performed for at least 5 XL1 Blue colonies per transfection, with the results of restriction digests differentiating potential interactors from bait plasmids. […] Phenotypes of resulting co-transfectants were assayed quantitatively and/or qualitatively as described above.

[2] = biological target: T2, histidyl t-RNA synthetase library interactor (pAD-GAL4 construct, EBML accession no. Z 11518) (human, UniProt P04386 761-881; P12081 2-509, limits assumed); assay: yeast two-hybrid, retransfection of Hf7c
T2 construct: False positive of the Hf7c screen
T2 sequence (looked up): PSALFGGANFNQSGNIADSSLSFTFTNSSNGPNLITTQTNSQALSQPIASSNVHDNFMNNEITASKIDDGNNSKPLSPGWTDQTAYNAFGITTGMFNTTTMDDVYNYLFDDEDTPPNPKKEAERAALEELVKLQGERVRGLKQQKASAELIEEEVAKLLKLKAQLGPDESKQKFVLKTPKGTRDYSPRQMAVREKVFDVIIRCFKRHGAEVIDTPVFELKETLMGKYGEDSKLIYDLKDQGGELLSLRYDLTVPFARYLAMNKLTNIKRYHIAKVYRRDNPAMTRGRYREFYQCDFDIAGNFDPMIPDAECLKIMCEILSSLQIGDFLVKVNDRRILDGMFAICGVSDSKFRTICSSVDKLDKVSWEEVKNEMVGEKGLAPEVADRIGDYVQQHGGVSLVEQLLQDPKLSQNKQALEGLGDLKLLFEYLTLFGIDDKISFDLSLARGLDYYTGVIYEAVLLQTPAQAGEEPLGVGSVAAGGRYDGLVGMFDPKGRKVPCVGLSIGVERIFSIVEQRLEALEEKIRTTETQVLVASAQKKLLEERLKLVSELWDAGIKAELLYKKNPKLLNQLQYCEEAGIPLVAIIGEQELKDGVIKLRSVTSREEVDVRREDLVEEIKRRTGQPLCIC
Procedure: as §1

[3] = biological target: T3, RING10 proteasome subunit library interactor (pAD-GAL4 construct, GenBank accession no. X62598) (human, UniProt P04386 761-881; P28062 73-276, limits assumed); assay: yeast two-hybrid, retransfection of Hf7c
T3 construct: False positive of the Hf7c screen
T3 sequence (looked up): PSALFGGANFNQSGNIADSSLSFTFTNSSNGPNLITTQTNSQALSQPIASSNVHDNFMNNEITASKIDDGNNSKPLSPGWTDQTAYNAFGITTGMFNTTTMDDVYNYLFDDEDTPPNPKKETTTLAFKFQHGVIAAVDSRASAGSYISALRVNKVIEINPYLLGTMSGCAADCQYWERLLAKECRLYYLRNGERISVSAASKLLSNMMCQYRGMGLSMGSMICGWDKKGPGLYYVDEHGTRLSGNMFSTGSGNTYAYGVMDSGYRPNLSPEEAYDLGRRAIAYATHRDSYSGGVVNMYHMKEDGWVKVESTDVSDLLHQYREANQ
Procedure: as §1

[4] = biological target: T4, hD53 interactor (GAL4 activation domain fusion, pACT2hD53) (human, UniProt P04386 768-881 (Saccharomyces cerevisiae entry)); assay: yeast two-hybrid in Y190, β-galactosidase assay
T4 construct: range 768-881
T4 sequence: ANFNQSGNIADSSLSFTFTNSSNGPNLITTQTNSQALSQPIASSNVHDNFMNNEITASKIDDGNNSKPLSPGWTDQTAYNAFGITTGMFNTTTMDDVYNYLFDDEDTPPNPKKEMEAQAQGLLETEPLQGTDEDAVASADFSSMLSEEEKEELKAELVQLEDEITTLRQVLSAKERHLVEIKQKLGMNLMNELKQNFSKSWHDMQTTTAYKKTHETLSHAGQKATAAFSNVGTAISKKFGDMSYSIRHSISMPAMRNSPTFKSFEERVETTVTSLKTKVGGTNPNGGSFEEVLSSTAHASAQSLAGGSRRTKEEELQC
Procedure: Interactions between baits and interactors were assessed by qualitatively and/or quantitatively determining HIS3 and lacZ reporter gene activity in Y190 co-transfectants. Reporter gene activities were assessed qualitatively by observing the growth and color development of Y190 co-transfectants on solid SD media lacking His, Trp and Leu (SD/-His-Trp-Leu), and incorporating 0.07 M potassium phosphate pH 7, 35 mM 3-AT, and 40 µg/ml X-gal. For quantitative assessment of interactions, β-galactosidase activity was measured using the substrate o-nitrophenyl β-D-galactopyranoside (ONPG) in liquid cultures (SD/-His-Trp-Leu +35 mM 3-AT) of Y190 co-transfectants.

Measured: binding result

B1: mD52(95-185) bait (GAL4 DNA-binding domain fusion, pAS2-1mD52(95-185)) (other)
chain: MKLLSSIEQACDICRLKKLKCSKEKPKCAKCLKNNWECRYSPKTKRSPLTRAHLTEVESRLERLEQLFLLIFPREDLDMILKMDSLQDIKALLTGLFVQDNVNKDAVTDRLASVETDMPLTLRQHRISATSSSEESSNKGQRQLTVSAYKKTSETLSQAGQKASAAFSSVGSVITKKLEDVKNSPTFKSFEEKVENLKSKVGGAKPAGGDFGEVLNSTANATSTMTTEPPPEQMTESP
notes: also called C-terminal half of mD52
no binding: all assays above
